Data on six molecules can be found in article PMC11940065, “Conformational Analyses of the AHD1-UBAN Region of TNIP1 Highlight Key Amino Acids for Interaction with Ubiquitin” (Biomolecules, 2025).

The chains are these.
B1: AHD1-UBAN E444F (domain or fragment, human, UniProt Q15025 417-509, looked up)
chain: QRLNKALEEALSIQTPPSSPPTAFGSPFGAGALLRKQELVTQNELLKQQVKIFEEDFQRERSDRERMNEEKEELKKQVEKLQAQVTLSNAQLK
notes: TNIP1 (ABIN1), human, amino acids 417-509 with E444F; source: E. coli Rosetta2 (DE3), purified (IMAC, SEC)
B2: AHD1-UBAN E444Q (domain or fragment, human, UniProt Q15025 417-509, looked up)
chain: QRLNKALEEALSIQTPPSSPPTAFGSPQGAGALLRKQELVTQNELLKQQVKIFEEDFQRERSDRERMNEEKEELKKQVEKLQAQVTLSNAQLK
notes: TNIP1 (ABIN1), human, amino acids 417-509 with E444Q; source: E. coli Rosetta2 (DE3), purified (IMAC, SEC)
B3: AHD1-UBAN E425Q (domain or fragment, human, UniProt Q15025 417-509, looked up)
chain: QRLNKALEQALSIQTPPSSPPTAFGSPEGAGALLRKQELVTQNELLKQQVKIFEEDFQRERSDRERMNEEKEELKKQVEKLQAQVTLSNAQLK
notes: TNIP1 (ABIN1), human, amino acids 417-509 with E425Q; source: E. coli Rosetta2 (DE3), purified (IMAC, SEC)
B4: WT AHD1-UBAN (TNIP1 417-509) (domain or fragment, human, UniProt Q15025 417-509, looked up)
chain: QRLNKALEEALSIQTPPSSPPTAFGSPEGAGALLRKQELVTQNELLKQQVKIFEEDFQRERSDRERMNEEKEELKKQVEKLQAQVTLSNAQLK
notes: TNIP1 (ABIN1), human, amino acids 417-509, the contiguous AHD1 and UBAN domains with their linker; In pET-28a(+); 15N-labelled for NMR; labelled with RED-tris-NTA dye on the His tag for MST; also called wildtype; ABIN1 AHD1-UBAN; source: E. coli Rosetta2 (DE3), purified (IMAC, SEC)
B5: AHD1-UBAN E425W (domain or fragment, human, UniProt Q15025 417-509, looked up)
chain: QRLNKALEWALSIQTPPSSPPTAFGSPEGAGALLRKQELVTQNELLKQQVKIFEEDFQRERSDRERMNEEKEELKKQVEKLQAQVTLSNAQLK
notes: TNIP1 (ABIN1), human, amino acids 417-509 with E425W; source: E. coli Rosetta2 (DE3), purified (IMAC, SEC)
B6: AHD1-UBAN P436W (domain or fragment, human, UniProt Q15025 417-509, looked up)
chain: QRLNKALEEALSIQTPPSSWPTAFGSPEGAGALLRKQELVTQNELLKQQVKIFEEDFQRERSDRERMNEEKEELKKQVEKLQAQVTLSNAQLK
notes: TNIP1 (ABIN1), human, amino acids 417-509 with P436W; source: E. coli Rosetta2 (DE3), purified (IMAC, SEC)

The target of one experiment is T1, Methionine-1-linked triubiquitin (UniProt P0CG48 1-76; P0CG48 1-76; P0CG48 1-76).
T1 construct: ubiquitin, unit 1 of 3, joined head to tail (M1-linked) on one chain; ubiquitin, unit 2 of 3, joined head to tail (M1-linked) on one chain; ubiquitin, unit 3 of 3, joined head to tail (M1-linked) on one chain; also called M1-triUb; M1-linked triubiquitin; source: bacterial production, purified (IMAC, SEC)
T1 sequence (P0CG48 1-228, one chain of several): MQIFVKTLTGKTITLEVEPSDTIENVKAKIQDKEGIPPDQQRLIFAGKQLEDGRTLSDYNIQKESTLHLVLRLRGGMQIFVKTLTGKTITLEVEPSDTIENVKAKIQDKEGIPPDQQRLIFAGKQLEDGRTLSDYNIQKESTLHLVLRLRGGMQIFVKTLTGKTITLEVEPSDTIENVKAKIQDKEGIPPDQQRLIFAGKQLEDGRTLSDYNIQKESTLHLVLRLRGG
Briefly: far-UV circular dichroism difference spectra; 1:1 molar mixture, each protein at 10 µM, 50 mM sodium phosphate pH 8.0, room temperature; compared with the mathematical average of the two separate spectra. The following applies: both partners purified.
In the case of B1, the binding result is on record as “binds”.
Turning to B2, the binding result is “binds”.
With B3, the binding result is on record as “binds”.

The target of the next experiment is T1, Methionine-1-linked triubiquitin. Briefly: MST; AHD1-UBAN labelled with RED-tris-NTA 2nd generation dye on its 6x-histidine tag; 16-step 2-fold serial dilution of M1-triUb from 40 µM to 610 pM; standard capillaries, Monolith X, MST power 40%, 23 °C; n = 2. The following applies: both partners purified.
For B4, the Kd was 3.85 ± 0.89 µM.
Molecule B5 yielded a Kd of 7.41 ± 2.28 µM.
On the same count and under the same terms, the same measure for B6: 8.38 ± 0.77 µM.
